Laboratory results published in PMC3079366.
Read-outs that look alike come from different tables or passages of the source.

Measured: localisation_or_trafficking

GluA1: GluA1-4KR (K813, K819, K822, K868 to R) co-transfected with Nedd4-1 in HEK293T
abolishes: ubiquitination at K813 | ubiquitination at K819 | ubiquitination at K822 | ubiquitination at K868
